Molecular target: Hsf1-13xMyc (S. cerevisiae) (UniProt P10961)
Experiment: cross-linking; in vivo site-specific photo-crosslinking (UV-A, 1 hr on ice) from pBPa at position 423 of Ssa1-HA; cells grown at 30 C or heat shocked 3 min at 43 C; western with anti-HA and anti-Myc

decrease of Hsf1-Ssa1 crosslinking after heat shock (3 min at 43 C) against cells at 30 C: 77%
Substance: Ssa1_(E423BPa)-HA (from UniProt P10591 1-642) (natural protein)

From article PMC6779467
